Reference: PMC10897178, “FANCJ DNA helicase is recruited to the replisome by AND-1 to ensure genome stability” (EMBO Reports, 2024)

T1: Flag-tagged FANCJ wild type (human, UniProt Q9BX63 1-1249)
T1 construct: FANCJ (BRIP1, BACH1) DNA helicase, human, open reading frame; purified as full-length protein; Plasmid from Hisao Masai (Uno et al, 2012); also called FANCJ WT; Flag-FANCJ WT; source: HEK 293T, transiently transfected (pCSII-EF-MCS): in whole-cell extract or nuclear fraction; also purified (anti-Flag M2 agarose, 3x Flag-peptide elution)
T1 sequence (looked up): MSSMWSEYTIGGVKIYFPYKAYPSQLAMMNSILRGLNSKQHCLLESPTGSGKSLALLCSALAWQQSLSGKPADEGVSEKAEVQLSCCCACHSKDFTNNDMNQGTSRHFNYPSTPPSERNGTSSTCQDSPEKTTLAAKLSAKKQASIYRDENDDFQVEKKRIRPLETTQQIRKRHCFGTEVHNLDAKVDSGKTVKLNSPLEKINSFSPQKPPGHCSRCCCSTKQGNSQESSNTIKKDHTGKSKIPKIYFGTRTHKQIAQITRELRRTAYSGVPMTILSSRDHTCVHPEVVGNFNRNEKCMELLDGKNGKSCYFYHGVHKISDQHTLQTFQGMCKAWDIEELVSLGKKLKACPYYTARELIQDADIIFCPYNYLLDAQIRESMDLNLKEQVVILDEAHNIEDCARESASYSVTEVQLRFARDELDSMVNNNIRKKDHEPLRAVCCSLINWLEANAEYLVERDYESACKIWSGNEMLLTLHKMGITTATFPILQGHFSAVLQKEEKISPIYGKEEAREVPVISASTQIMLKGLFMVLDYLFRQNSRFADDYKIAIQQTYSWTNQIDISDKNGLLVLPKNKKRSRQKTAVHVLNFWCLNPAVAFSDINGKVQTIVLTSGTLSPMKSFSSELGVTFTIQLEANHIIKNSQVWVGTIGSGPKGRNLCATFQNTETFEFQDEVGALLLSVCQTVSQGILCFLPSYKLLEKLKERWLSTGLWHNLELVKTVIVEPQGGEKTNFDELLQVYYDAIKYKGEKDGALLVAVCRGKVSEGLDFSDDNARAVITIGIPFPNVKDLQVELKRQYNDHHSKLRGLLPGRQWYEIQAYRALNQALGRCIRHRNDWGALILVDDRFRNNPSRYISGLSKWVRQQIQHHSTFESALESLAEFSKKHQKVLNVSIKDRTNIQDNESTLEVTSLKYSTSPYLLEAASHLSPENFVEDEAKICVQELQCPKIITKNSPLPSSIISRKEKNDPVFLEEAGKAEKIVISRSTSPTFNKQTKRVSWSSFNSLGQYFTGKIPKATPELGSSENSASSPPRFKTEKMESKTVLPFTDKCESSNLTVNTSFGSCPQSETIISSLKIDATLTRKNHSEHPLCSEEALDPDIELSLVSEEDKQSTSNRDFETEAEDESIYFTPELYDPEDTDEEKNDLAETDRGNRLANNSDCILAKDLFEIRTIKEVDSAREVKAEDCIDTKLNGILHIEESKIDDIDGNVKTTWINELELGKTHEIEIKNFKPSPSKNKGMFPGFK

B1: GST-FANCJ CIP box wild type (domain or fragment, human, UniProt Q9BX63 730-747, looked up)
chain: GEKTNFDELLQVYYDAIK
notes: FANCJ (BRIP1), human, CIP box, amino-acid residues 730-747; also called GST-CIP box WT; source: transformed cells cultured in LB medium, IPTG-induced (pGEX-6P-1); captured from the soluble extract on Glutathione Sepharose 4B beads
B2: 6xHis-tagged AND-1 SepB (domain or fragment, human, UniProt O75717 336-826, looked up)
chain: GDFLNDNAVEIPSFSKGIINDDEDDEDLMMASGRPRQRSHILEDDENSVDISMLKTGSSLLKEEEEDGQEGSIHNLPLVTSQRPFYDGPMPTPRQKPFQSGSTPLHLTHRFMVWNSIGIIRCYNDEQDNAIDVEFHDTSIHHATHLSNTLNYTIADLSHEAILLACESTDELASKLHCLHFSSWDSSKEWIIDLPQNEDIEAICLGQGWAAAATSALLLRLFTIGGVQKEVFSLAGPVVSMAGHGEQLFIVYHRGTGFDGDQCLGVQLLELGKKKKQILHGDPLPLTRKSYLAWIGFSAEGTPCYVDSEGIVRMLNRGLGNTWTPICNTREHCKGKSDHYWVVGIHENPQQLRCIPCKGSRFPPTLPRPAVAILSFKLPYCQIATEKGQMEEQFWRSVIFHNHLDYLAKNGYEYEESTKNQATKEQQELLMKMLALSCKLEREFRCVELADLMTQNAVNLAIKYASRSRKLILAQKLSELAVEKAAELTAT
notes: AND-1 (WDHD1), human, SepB domain, amino-acid residues 336-826; pRSF-Duet-1 construct from Luca Pellegrini; purification as in Kilkenny et al, 2017; also called 6xHis-SepB; AND-1 SepB domain; source: E. coli BL21 (DE3), purified
B3: full-length 10xHis-Myc-tagged AND-1 (natural protein, human, UniProt O75717 1-1129, looked up)
chain: MPATRKPMRYGHTEGHTEVCFDDSGSFIVTCGSDGDVRIWEDLDDDDPKFINVGEKAYSCALKSGKLVTAVSNNTIQVHTFPEGVPDGILTRFTTNANHVVFNGDGTKIAAGSSDFLVKIVDVMDSSQQKTFRGHDAPVLSLSFDPKDIFLASASCDGSVRVWQISDQTCAISWPLLQKCNDVINAKSICRLAWQPKSGKLLAIPVEKSVKLYRRESWSHQFDLSDNFISQTLNIVTWSPCGQYLAAGSINGLIIVWNVETKDCMERVKHEKGYAICGLAWHPTCGRISYTDAEGNLGLLENVCDPSGKTSSSKVSSRVEKDYNDLFDGDDMSNAGDFLNDNAVEIPSFSKGIINDDEDDEDLMMASGRPRQRSHILEDDENSVDISMLKTGSSLLKEEEEDGQEGSIHNLPLVTSQRPFYDGPMPTPRQKPFQSGSTPLHLTHRFMVWNSIGIIRCYNDEQDNAIDVEFHDTSIHHATHLSNTLNYTIADLSHEAILLACESTDELASKLHCLHFSSWDSSKEWIIDLPQNEDIEAICLGQGWAAAATSALLLRLFTIGGVQKEVFSLAGPVVSMAGHGEQLFIVYHRGTGFDGDQCLGVQLLELGKKKKQILHGDPLPLTRKSYLAWIGFSAEGTPCYVDSEGIVRMLNRGLGNTWTPICNTREHCKGKSDHYWVVGIHENPQQLRCIPCKGSRFPPTLPRPAVAILSFKLPYCQIATEKGQMEEQFWRSVIFHNHLDYLAKNGYEYEESTKNQATKEQQELLMKMLALSCKLEREFRCVELADLMTQNAVNLAIKYASRSRKLILAQKLSELAVEKAAELTATQVEEEEEEEDFRKKLNAGYSNTATEWSQPRFRNQVEEDAEDSGEADDEEKPEIHKPGQNSFSKSTNSSDVSAKSGAVTFSSQGRVNPFKVSASSKEPAMSMNSARSTNILDNMGKSSKKSTALSRTTNNEKSPIIKPLIPKPKPKQASAASYFQKRNSQTNKTEEVKEENLKNVLSETPAICPPQNTENQRPKTGFQMWLEENRSNILSDNPDFSDEADIIKEGMIRFRVLSTEERKVWANKAKGETASEGTEAKKRKRVVDESDETENQEEKAKENLNLSKKQKPLDFSTNQKLSAFAFKQE
notes: AND-1 (WDHD1), human, full length, amino-acid residues 1-1129; pFBDM construct from Luca Pellegrini (Kilkenny et al, 2017); also called His10-Myc-tagged AND-1; AND-1 full-length; source: High-Five insect cells, baculovirus, purified (Ni-NTA, HiTrap Q)

Assays:
Conditions in all cases: both partners purified
6xHis-tagged AND-1 SepB = target: B2; assay: pull-down; GST-FANCJ CIP box on Glutathione Sepharose 4B beads, purified AND-1 SepB (0.5 mg in 500 μL) added; PD Buffer 1 with 1% BSA, 1 h at 4 °C; SDS-PAGE, Coomassie
[1] = target: T1, Flag-tagged FANCJ wild type; assay: pull-down; Flag-tagged protein (2 µg) on anti-Flag M2 agarose beads, purified AND-1 SepB (4 µg) added; 20 mM HEPES-NaOH pH 7.2, 150 mM NaCl, 0.1% Igepal, 1% BSA, 4 °C; Western blot
[2] = target: T1, Flag-tagged FANCJ wild type; assay: pull-down; His10-Myc-AND-1 (12 μg) on c-Myc magnetic beads, purified FANCJ (4 μg) added; PBS, 5% glycerol, 0.5 mM TCEP, 0.2% Igepal, Benzonase, 2 h at 4 °C; Western blot

Binder: B1
- binding result (6xHis-tagged AND-1 SepB): binds

Binder: B2
- binding result [1]: binds

Binder: B3
- binding result [2]: binds
